Where a chain is given by its changes, count along the chain named.

The assay has as its target T1, Human recombinant AXL-FND1 (GST-FND1), from pET-41b(+) (human, UniProt P30530 225-331).
T1 construct: Expressed in E. coli, purified on Glutathione Sepharose; analyte in all Biacore measurements; GST put first by the usual layout of pET-41; not shown: GST-tag of vector pET-41b(+) (Novagen)
T1 sequence (looked up): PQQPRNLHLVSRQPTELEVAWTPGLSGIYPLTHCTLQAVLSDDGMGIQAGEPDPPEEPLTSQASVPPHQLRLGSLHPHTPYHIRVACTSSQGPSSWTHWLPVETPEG
The assay can be described thus: SPR (Biacore T100): antibody captured on Protein A, GST-FND1 as analyte. Summed up: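 Antibodies (1 μg/mL) were captured for 2 min on a Protein A CM5 chip. GST-FND1 (0.5 and 2.0 μg/mL) in HBS-EP+ was flowed at 30 μL/min with 2 min association and 2 min dissociation at 25° C. ka and kd were fitted from sensorgrams and Kd was calculated from them.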
For orientation: SPR reads the build-up and loss of mass on a sensor chip optically.

B1: H47/L35 (antibody, human IgG1, kappa)
heavy: not shown
light: DVVMTQSPLSLPVTLGQPASISCRSSRNIVHTNGNTYLEWYQQKPGKAPKLLIYKVSNRFSGVPDRFSGSGSGTDFTLKISRVEAEDVGVYYCFQGSHIPFTFGRGTKLEIKRTVAAPSVFIFPPSDEQLKSGTASVVCLLNNFYPREAKVQWKVDNALQSGNSQESVTEQDSKDSTYSLSSTLTLSKADYEKHKVYACEVTHQGLSSPVTKSFNRGEC
As usually defined, the Kd is the free concentration of one partner at which half of the binding sites on the other are occupied at equilibrium, for simple one-to-one binding. Turning to B1, the Kd is 1.68 nM.

B2: H49/L31 (antibody, human IgG1, kappa)
heavy: not shown
light: B1 light with R105Q
B2: the Kd stood at 1.94 nM.

B3: H48/L28 (antibody, human IgG1, kappa)
heavy: not shown
light: B1 light with R27Q, R105Q
As to B3, the Kd was 2.07 nM.

B4: H50/L31 (antibody, human IgG1, kappa)
heavy: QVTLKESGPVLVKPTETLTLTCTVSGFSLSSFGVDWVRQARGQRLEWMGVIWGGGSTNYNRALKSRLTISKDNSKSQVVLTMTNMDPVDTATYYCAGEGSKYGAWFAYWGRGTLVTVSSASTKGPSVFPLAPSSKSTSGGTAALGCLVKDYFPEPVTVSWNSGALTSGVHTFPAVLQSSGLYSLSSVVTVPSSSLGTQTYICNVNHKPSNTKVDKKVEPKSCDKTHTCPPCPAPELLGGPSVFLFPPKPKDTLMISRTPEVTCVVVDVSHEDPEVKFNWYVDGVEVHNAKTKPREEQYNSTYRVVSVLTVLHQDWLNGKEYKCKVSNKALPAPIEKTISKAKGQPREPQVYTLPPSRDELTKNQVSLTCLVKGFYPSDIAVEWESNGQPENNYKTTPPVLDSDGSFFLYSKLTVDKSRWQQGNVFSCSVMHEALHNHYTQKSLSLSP
light: B1 light with R105Q
As to B4, the Kd was determined as 1.93 nM.

B5: H50/L28 (antibody, human IgG1, kappa)
heavy: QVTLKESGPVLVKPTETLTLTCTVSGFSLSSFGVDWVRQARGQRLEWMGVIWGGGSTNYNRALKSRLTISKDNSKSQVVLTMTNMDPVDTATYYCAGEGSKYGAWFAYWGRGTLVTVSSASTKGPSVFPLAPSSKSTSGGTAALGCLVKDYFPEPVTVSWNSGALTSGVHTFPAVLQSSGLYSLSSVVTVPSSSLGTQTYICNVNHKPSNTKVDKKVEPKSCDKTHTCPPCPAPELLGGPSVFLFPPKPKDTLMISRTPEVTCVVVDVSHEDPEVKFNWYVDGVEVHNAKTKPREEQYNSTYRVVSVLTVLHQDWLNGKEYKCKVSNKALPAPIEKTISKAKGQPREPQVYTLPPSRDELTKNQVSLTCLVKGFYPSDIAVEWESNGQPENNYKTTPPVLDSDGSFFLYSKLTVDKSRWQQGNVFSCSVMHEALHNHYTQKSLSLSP
light: B1 light with R27Q, R105Q
Take B5: the Kd was determined as 1.97 nM.

B6: H49/L11 (antibody, human IgG1, kappa)
heavy: not shown
light: B1 light with R24Q, R27Q, K50E, R105Q, L109V, K112E
Consider B6, for which the Kd worked out at 1.92 nM.

B7: H48/L31 (antibody, human IgG1, kappa)
heavy: not shown
light: B1 light with R105Q
With B7, the Kd is 1.98 nM.

B8: H47/L37 (antibody, human IgG1, kappa)
heavy: not shown
light: B1 light with Q17R
Turning to B8, the Kd was found to be 2.38 nM.

B9: H49/L28 (antibody, human IgG1, kappa)
heavy: not shown
light: B1 light with R27Q, R105Q
As to B9, the Kd amounted to 2.11 nM.

B10: H50/L35 (antibody, human IgG1, kappa)
heavy: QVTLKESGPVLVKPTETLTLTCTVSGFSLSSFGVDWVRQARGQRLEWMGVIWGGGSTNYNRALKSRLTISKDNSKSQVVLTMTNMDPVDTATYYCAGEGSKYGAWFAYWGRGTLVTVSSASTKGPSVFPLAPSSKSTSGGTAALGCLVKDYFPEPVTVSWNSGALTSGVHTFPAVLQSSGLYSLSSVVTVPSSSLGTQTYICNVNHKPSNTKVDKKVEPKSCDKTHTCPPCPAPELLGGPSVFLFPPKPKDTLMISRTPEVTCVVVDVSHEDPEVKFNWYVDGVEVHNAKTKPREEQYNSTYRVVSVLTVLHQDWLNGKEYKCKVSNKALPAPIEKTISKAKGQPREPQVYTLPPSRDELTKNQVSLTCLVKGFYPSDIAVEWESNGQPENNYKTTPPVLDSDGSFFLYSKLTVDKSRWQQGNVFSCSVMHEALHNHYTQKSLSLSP
light: B1 light
Take B10: the Kd amounted to 2.24 nM.

B11: H50/L1 (antibody, human IgG1, kappa)
heavy: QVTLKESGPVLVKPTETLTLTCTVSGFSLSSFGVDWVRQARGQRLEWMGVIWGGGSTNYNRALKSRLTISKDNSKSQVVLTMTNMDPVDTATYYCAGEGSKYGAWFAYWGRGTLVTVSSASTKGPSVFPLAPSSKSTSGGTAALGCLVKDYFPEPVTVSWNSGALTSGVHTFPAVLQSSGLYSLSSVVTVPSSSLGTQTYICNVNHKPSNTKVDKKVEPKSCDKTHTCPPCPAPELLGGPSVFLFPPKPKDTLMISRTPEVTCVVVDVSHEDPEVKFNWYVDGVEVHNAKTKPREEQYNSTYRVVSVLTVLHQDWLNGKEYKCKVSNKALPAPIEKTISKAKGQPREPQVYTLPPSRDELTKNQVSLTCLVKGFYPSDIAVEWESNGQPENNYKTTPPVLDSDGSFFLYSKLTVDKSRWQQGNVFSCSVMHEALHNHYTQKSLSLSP
light: B1 light with R24Q, R27Q, K50E, R105Q
For B11, the Kd was 1.86 nM.

B12: H48/L35 (antibody, human IgG1, kappa)
heavy: not shown
light: B1 light
In the case of B12, the Kd is 2.07 nM.

B13: H49/L37 (antibody, human IgG1, kappa)
heavy: not shown
light: B1 light with Q17R
Turning to B13, the dissociation constant (Kd) came to 2.43 nM.

B14: H48/L27 (antibody, human IgG1, kappa)
heavy: not shown
light: B1 light with K50E, R105Q
As to B14, the Kd came out at 1.99 nM.

B15: H49/L34 (antibody, human IgG1, kappa)
heavy: not shown
light: B1 light with Q17R, R105Q
On to B15, for which the Kd was found to be 2.21 nM.

B16: H48/L34 (antibody, human IgG1, kappa)
heavy: not shown
light: B1 light with Q17R, R105Q
As for B16, the Kd stood at 2.27 nM.

B17: H50/L10 (antibody, human IgG1, kappa)
heavy: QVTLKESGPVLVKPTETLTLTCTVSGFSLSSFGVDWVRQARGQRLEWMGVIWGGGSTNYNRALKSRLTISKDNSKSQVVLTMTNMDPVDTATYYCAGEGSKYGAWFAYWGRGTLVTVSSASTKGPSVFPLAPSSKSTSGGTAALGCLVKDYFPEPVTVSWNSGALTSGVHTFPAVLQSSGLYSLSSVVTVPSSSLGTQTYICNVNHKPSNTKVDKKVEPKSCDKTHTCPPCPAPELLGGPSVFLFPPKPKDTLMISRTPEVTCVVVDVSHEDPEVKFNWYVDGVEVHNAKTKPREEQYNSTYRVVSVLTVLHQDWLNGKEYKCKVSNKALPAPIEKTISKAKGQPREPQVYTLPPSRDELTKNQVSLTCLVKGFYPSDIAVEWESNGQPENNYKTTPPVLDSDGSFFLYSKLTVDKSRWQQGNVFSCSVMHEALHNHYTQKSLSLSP
light: B1 light with R27Q, K50E, R105Q, L109V, K112E
For B17, the Kd stood at 1.9 nM.

B18: H48/L1 (antibody, human IgG1, kappa)
heavy: not shown
light: B1 light with R24Q, R27Q, K50E, R105Q
Turning to B18, the Kd was 2.09 nM.

B19: H50/L37 (antibody, human IgG1, kappa)
heavy: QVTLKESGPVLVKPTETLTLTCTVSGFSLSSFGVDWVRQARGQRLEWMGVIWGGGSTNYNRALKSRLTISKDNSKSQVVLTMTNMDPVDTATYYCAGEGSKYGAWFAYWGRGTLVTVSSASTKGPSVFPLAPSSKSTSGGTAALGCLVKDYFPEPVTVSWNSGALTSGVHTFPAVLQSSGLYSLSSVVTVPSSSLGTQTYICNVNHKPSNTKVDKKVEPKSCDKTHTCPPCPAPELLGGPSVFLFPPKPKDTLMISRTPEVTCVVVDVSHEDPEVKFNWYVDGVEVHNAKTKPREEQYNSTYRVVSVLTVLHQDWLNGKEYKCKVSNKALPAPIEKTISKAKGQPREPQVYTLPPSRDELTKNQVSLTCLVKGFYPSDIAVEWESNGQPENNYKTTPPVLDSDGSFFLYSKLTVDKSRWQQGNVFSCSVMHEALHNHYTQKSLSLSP
light: B1 light with Q17R
Regarding B19, the Kd was 2.72 nM.

B20: H49/L1 (antibody, human IgG1, kappa)
heavy: not shown
light: B1 light with R24Q, R27Q, K50E, R105Q
For the molecule B20, the Kd stood at 1.91 nM.

B21: H50/L0 (antibody, human IgG1, kappa)
heavy: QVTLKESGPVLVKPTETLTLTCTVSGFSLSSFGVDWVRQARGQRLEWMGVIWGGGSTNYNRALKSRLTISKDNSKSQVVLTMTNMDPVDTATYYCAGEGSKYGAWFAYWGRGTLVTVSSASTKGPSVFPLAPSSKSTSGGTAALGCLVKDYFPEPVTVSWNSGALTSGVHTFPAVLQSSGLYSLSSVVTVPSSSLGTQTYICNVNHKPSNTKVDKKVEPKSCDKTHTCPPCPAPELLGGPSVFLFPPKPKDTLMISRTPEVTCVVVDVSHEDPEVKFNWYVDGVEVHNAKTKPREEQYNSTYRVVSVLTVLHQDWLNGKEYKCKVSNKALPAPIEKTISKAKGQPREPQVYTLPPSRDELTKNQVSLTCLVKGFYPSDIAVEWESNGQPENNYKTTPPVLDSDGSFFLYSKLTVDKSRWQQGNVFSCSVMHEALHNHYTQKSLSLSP
light: B1 light with R27Q, K50E, R105Q
Regarding B21, the Kd came to 1.89 nM.

B22: H48/L0 (antibody, human IgG1, kappa)
heavy: not shown
light: B1 light with R27Q, K50E, R105Q
Consider B22, for which the Kd turned out to be 2.09 nM.

B23: H50/L11 (antibody, human IgG1, kappa)
heavy: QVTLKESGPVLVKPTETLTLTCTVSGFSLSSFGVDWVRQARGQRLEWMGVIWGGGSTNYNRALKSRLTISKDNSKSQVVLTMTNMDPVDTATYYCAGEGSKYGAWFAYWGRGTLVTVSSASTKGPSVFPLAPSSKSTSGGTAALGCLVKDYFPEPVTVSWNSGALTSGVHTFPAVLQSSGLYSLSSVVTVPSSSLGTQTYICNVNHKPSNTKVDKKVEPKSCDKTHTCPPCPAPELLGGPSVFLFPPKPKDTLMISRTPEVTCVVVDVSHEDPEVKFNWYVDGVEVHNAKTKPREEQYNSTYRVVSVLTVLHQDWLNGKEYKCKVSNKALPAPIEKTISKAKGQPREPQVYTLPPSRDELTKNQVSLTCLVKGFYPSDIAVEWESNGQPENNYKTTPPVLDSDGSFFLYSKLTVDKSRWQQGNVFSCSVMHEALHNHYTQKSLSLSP
light: B1 light with R24Q, R27Q, K50E, R105Q, L109V, K112E
On to B23, for which the Kd turned out to be 1.82 nM.

B24: H49/L27 (antibody, human IgG1, kappa)
heavy: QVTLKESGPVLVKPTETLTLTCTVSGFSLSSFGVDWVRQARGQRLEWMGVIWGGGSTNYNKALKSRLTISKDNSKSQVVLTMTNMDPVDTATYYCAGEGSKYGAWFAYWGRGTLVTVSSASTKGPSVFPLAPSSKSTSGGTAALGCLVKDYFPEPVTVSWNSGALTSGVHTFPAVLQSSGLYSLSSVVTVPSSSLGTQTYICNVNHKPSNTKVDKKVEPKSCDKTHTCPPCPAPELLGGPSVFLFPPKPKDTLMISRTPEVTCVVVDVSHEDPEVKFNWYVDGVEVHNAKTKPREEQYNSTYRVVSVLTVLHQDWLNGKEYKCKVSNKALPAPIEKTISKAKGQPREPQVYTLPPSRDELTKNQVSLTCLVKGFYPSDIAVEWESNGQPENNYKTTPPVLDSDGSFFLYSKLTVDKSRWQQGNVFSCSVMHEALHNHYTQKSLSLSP
light: B1 light with K50E, R105Q
As to B24, the dissociation constant Kd stood at 2.08 nM.

B25: H48/L11 (antibody, human IgG1, kappa)
heavy: not shown
light: B1 light with R24Q, R27Q, K50E, R105Q, L109V, K112E
Regarding B25, the Kd was found to be 2 nM.

B26: H49/L35 (antibody, human IgG1, kappa)
heavy: not shown
light: B1 light
Turning to B26, the Kd was found to be 2.08 nM.

B27: H48/L37 (antibody, human IgG1, kappa)
heavy: not shown
light: B1 light with Q17R
For B27, the Kd turned out to be 2.19 nM.

B28: H49/L0 (antibody, human IgG1, kappa)
heavy: not shown
light: B1 light with R27Q, K50E, R105Q
Take B28: the Kd turned out to be 2.06 nM.

B29: H49/L10 (antibody, human IgG1, kappa)
heavy: not shown
light: B1 light with R27Q, K50E, R105Q, L109V, K112E
As to B29, the equilibrium dissociation constant (Kd) amounted to 2.05 nM.

B30: H48/L10 (antibody, human IgG1, kappa)
heavy: not shown
light: B1 light with R27Q, K50E, R105Q, L109V, K112E
B30: the Kd amounted to 2.06 nM.

B31: H50/L34 (antibody, human IgG1, kappa)
heavy: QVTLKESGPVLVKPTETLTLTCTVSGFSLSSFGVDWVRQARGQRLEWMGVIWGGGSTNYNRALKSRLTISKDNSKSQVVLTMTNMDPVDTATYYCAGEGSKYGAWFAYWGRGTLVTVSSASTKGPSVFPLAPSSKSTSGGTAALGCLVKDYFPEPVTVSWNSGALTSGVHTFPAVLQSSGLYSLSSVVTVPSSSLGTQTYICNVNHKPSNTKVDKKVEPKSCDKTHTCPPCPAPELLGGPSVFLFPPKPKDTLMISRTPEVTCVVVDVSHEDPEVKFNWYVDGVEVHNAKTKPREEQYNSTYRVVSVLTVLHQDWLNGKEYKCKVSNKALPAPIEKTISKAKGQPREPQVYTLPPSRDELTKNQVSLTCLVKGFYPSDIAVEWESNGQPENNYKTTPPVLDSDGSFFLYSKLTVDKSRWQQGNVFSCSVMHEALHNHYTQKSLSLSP
light: B1 light with Q17R, R105Q
As to B31, the dissociation constant Kd is 2.36 nM.

B32: H50/L27 (antibody, human IgG1, kappa)
heavy: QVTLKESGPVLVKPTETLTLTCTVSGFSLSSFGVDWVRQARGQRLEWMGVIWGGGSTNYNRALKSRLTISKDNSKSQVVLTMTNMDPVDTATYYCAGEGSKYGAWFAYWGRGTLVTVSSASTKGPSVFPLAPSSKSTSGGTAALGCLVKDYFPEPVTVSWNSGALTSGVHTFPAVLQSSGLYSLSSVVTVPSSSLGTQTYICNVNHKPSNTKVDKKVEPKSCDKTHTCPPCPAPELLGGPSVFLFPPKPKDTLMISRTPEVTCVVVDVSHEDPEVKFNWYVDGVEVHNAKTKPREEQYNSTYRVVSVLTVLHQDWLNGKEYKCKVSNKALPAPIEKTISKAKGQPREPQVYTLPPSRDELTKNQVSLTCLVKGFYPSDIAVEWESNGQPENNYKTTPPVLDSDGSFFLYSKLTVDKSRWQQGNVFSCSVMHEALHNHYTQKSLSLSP
light: B1 light with K50E, R105Q
As for B32, the dissociation constant Kd was determined as 1.95 nM.

Source of the values: patent US20120121587A1 (Chugai, published 2012).
